Data: the DeepSol protein solubility set

assay: soluble on expression in E. coli; label from the status in PepcDB or PDB records

Sequence | soluble on expression in E. coli
MELSPAERQLLLAHRLAVFDGCVVYDAQPPVSAEHVQRLAEGLAGPIPEDLLRLWRTCFGGRLGYDLEVDYDGHRHPFSFSELFYPDSDGYHDLWGWIEHERELAAEAAAEEGRDWNGKLAYLPFGGFEYLERLYVCVEPGPEHGAVIAWSHGLPPAWAGRLHQDSVTRLADDVGGLFRLLSFEQDPFDAENACGVADELLEALDALEAAGEPGKALKGRLEVLLRQRILDWRPALADGSLAAEPRLRQLALAEAAQDGDIDLLQRLRDAGCDFAETLRGRGGVLEACLARGRLEAARWLLDQGVAVHQDSLQIGAAHLDAVLAERLLRLGAISDPNTVLLALQYGDADAARIMARPLLEESPARANALRLALASRAERERSDARRVRSGKMGSNRSPDDYLALAERLERFLAELPG | not soluble
MEMVNAEAKQSVPLLTPYKMGRFNLSHRVVLAPLTRQKSYGSVPQPHAILYYSQRTSPGGFLIAEATGVSDTAQGYPDTPGIWTKEHVEAWKPIVDAVHAKGGIFFCQIWHVGRVSNRGFQPRRQAPISCTGKPIMPQMRANGIDEARFTPPRRLSIEEIPGIVNDFRLAARNAMEAGFDGVEIHGAHGYLIDQFMKDKVNDRTDEYGGSLQNRCKFALEVVDAVAKEIGPDRVGIRLSPFADYMESGDTNPEALGLYMVESLNKYGILYCHMIEPRMKTVGEIAACSHTLMPMREAFKGTFISAGGFTREDGNEAVAKGRTDLVAYGRWFLANPDLPKRFQLDAPLNKYNRSTFYTSDPVVGYTDYPSLESTA | soluble
MENMIVIMAGGRSSRMGAEKPILKVNGKPMILRVYEESTKVGETLVAISKNTPKTRELCIKEGIPLIETPGEGYVEDVRYLLKELGSFVSVSADLPFVKACDIAEVKKAFDGKTSLTGVLPLSKVPTDLRPVVYKGYVIVGLNGVGFEGEKFYELSNPLLALNVNTPEELKLANRIAKLIG | soluble
MENQLTKSVEERTFQYQDSLPSLPVPALEESLKKYLESVKPFANEDEYKKTEEIVQKFQEGAGKRLHQKLLERARGKRNWLEEWWLNVAYLDVRIPSQLNVNFVGPCPHFEHYWPAREGTQLERGSMMLWHNLNYWQLLRREKLPVHKSGNTPLDMNQFRMLFSTCKVPGITRDSIMNYFKTESEGHCPTHIAVLCRGRAFVFDVLHEGCLITPPELLRQLTYIHKKCSNEPVGPSIAALTSEERTRWAKAREYLISLDPENLTLLEKIQTSLFVYSIEDSSPHATPEEYSQVFEMLLGGDPSVRWGDKSYNLISFANGIFGCCCDHAPYDAMVMVNIAHYVDERVLETEGRWKGSEKVRDIPLPEELVFTVDEKILNDVSQAKAQHLKAASDLQIAASTFTSFGKKLTKEEALHPDTFIQLALQLAYYRLHGRPGCCYETAMTRYFYHGRTETVRSCTVEAVRWCQSMQDPSASLLERQQKMLEAFAKHNKMMKDCSHGKGFDRHLLGLLLIAKEEGLPVPELFEDPLFSRSGGGGNFVLSTSLVGYLRVQGVVVPMVHNGYGFFYHIRDDRFVVACSSWRSCPETDAEKLVQMIFHAFHDMIQLMNTAHL | soluble
MENSSDPRTQSAATASLSEMIATITKTFIIAHVDDSDEHLAQALVYNAGRLAWRMREQGVHTDYKTSLSDVVTDADRAAEEFVSGVLTTLRPEDGIVGEEGATRNSTSGRTWVIDPVDGTYNFVNGSDFWCSALALIEGEPEDPTSVIFGAVHRPAMGYTWFGGPEIPTTCDGQPVAKLENKSTELINFATYLNPPCLQQPEIVTRWLTIAQAFLSWRMMGSGSVELANVADGTIGAYVQHSVKDWDWLPGRALVEGAGGKCIKVESGGVTWSIASNPQATDEVAAMLSR | not soluble
MEPRVTQRKRPLDGCMGKITGITSDILKYDHKCFKLSLPAKFPEVCGSDEVFPDPDLLHVLPVAGSLQQSIDQCCLQLESLCRPGLLCAHPTLLFKLHSSMKNRPFFSLIYTYVKKTQQVRKRDRKPRGQVAAGPNPTSVMLEHHHHHH | soluble
MEQFINPRVKDIQISGIRQFSNMIQNYDNLISLTIGQSDFPTPSLVKEAAKRAITENYTSYTHNAGLLELRKAACNFVKDNYDLHYSPETETIVTIGASEAIDVAFRTILEPGTEVILPAPIYPGYEPIIRLCGATPIFIDVRETGFRLTAEALENAITEKTRCVVLPYPSNPTGVTLSKKELQDIADVLKDKNIFVLSDEIYSELVYEQTHTSIAHFPEMREKTIVINGLSKSHSMTGWRIGLLFAPSYLAGHILKVHQYNVTCATSIAQYAAIEALTAAKDAPKMMRHQYKKRRDYVYNRLIQMGLTVEKPTGAFYLFPYVGHLTSSSFDFALDLVKEAGLAVVPGTAFSEYGEGYLRLSYAYSIETLKEGCDRLEAFLQQKAKS | not soluble
MEQLTKCEVFRELKDLKGYGGVSLPEWVCTTFHTSGYDTQAIVQNNDSTEYGLFQINNKIWCKDDQNPHSSNICNISCDKFLDDDLTDDIVCVKKILDKVGINYWLAHKALCSEKLDQWLCEKL | soluble
MERAESSSTEPAKAIKPIDRKSVHQICSGQVVLSLSTAVKELVENSLDAGATNIDLKLKDYGVDLIEVSDNGCGVEEENFEGLTLKHHTSKIQEFADLTQVETFGFRGEALSSLCALSDVTISTCHASAKVGTRLMFDHNGKIIQKTPYPRPRGTTVSVQQLFSTLPVRHKEFQRNIKKEYAKMVQVLHAYCIISAGIRVSCTNQLGQGKRQPVVCTGGSPSIKENIGSVFGQKQLQSLIPFVQLPPSDSVCEEYGLSCSDALHNLFYISGFISQCTHGVGRSSTDRQFFFINRRPCDPAKVCRLVNEVYHMYNRHQYPFVVLNISVDSECVDINVTPDKRQILLQEEKLLLAVLKTSLIGMFDS | soluble
MEREQRHKVIMRTIDRPGITRIDALTELTGVSAVTIHRDLVELEQAGFLARTHGGAKRVPKRGTPQPFAVRQAEDREAKRILAQATAQLIADDEAVIFDNGTTCQAVAQELAGRPITALCLSLHSAVALGSRAGTNVFIPGGPVENDSLALSGPAVITALRDFSADVVILGSCSTSLEHGLATTTYDDAENKRAAIHAATRRILVVSARKLNHVSTFRFADVADLHQLVTTSDAPREILAEIRDLGVQVITVPAPDEQRSLEHHHHHH | soluble
MERLKIQVLVDNNTYIDRYFVGEPAVSYYIEIDGNRILFDSGYSDVFISNAEKLNIDLGNLTHVVFSHGHNDHTRGIQFLENRYDLSTVELVSHPNCFIPRKHGEKSIGAPFSAEEIKNIFMYNPKDKPFNLSKNCVFLGEIPSINDFEKRAKIGKCKIGDLWEDDYVLDDSAIVCKTDKGIFIVTGCSHSGICNIVEYAKKVCGDDRVIGILGGFHLFELNNRLDSTIQYLDKEEIRMLYPCHCVSFKVKAKMNEILNINEVGVGLTISILEHHHHHH | soluble
MERTVVETRYGRLRGEMNEGVFVWKGIPYAKAPVGERRFLPPEPPDAWDGVREATSFGPVVMQPSDPIFSGLLGRMSEAPSEDGLYLNIWSPAADGKKRPVLFWIHGGAFLFGSGSSPWYDGTAFAKHGDVVVVTINYRMNVFGFLHLGDSFGEAYAQAGNLGILDQVAALRWVKENIAAFGGDPDNITIFGESAGAASVGVLLSLPEASGLFRRAMLQSGSGSLLLRSPETAMAMTERILDKAGIRPGDRERLLSIPAEELLRAALSLGPGVMYGPVVDGRVLRRHPIEALRYGAASGIPILIGVTKDEYNLFTLTDPSWTKLGEKELLDRINREVGPVPEEAIRYYKETAEPSAPTWQTWLRIMTYRVFVEGMLRTADAQAAQGADVYMYRFDYETPVFGGQLKAAHALELPFVFHNLHQPGVANFVGNRPEREAIANEMHYAWLSFARTGDPNGAHLPEAWPAYTNERKAAFVFSAASHVEDDPFGRERAAWQGR | soluble
MESAGFHYKLDIPAGTPDCAIVLLHGSGRTEDDLISFGRAVFPTGALYAPRGAVAWENGFAFFRRKPDRELDIDDLKHQATRLCHFVAFVFQQTGRRPILVGYSNGAIIAAETICQAHHLSKGAILLRPLSPRKDQSLPNLAGYPVLLLAGASDDRRHPSDAPHLSEQLTSAGADAVLETINTGHGWAEDAADERLSRQWLARLPIA | not soluble
MESENQIAILDYIFNQVNQPNQPKIVWFSGEGEDEKINFLIRLNDFFKPKFVENTNDSSFLLSFRNHVETKNSTPLTQANFANIANKLLAVLFGSLQWKQLNK | not soluble
MESGHRFDAQTLHSFIQAVFRQMGSEEQEAKLVADHLIAANLAGHDSHGIGMIPSYVRSWSQGHLQINHHAKTVKEAGAAVTLDGDRAFGQVAAHEAMALGIEKAHQHGIAAVALHNSHHIGRIGYWAEQCAAAGFVSIHFVSVVGIPMVAPFHGRDSRFGTNPFCVVFPRKDNFPLLLDYATSAIAFGKTRVAWHKGVPVPPGCLIDVNGVPTTNPAVMQESPLGSLLTFAEHKGYALAAMCEILGGALSGGKTTHQETLQTSPDAILNCMTTIIINPELFGAPDCNAQTEAFAEWVKASPHDDDKPILLPGEWEVNTRRERQKQGIPLDAGSWQAICDAARQIGMPEETLQAFCQQLAS | soluble
MESNEDVERLLCQKYPGLAAELQPSGACIIRGVLGSEDTWRRLKLYLPHHPALHGFQLYVQESLEYKLYTSANLKLQDDWLLEDFLDHLPKILPAQKAPTVPKELCREGNIYYDILALYKSNEYCLQVDEACSMIRFSEFTDFEQHYLELKIPSLLLLDHSLPDCVSLGEMLTKSAGNLEEALNLFRKLLEDLRPFYDNFMDIDELCHVLQPSPISSKHKTRLFPLKDRVYLKLTIADPFACIASMSLKIIGPTEEVARLRHVLSDGLSNWDSEMNIHKNLLRMFDLCYFPMPDWSDGPKLDEEDNEELRCNICFAYRLDGGEVPLVSCDNAKCVLKCHAVCLEEWFKTLMDGKTFLEVSFGQCPFCKAKLSTSFAALLND | soluble
MESVTRKSVLQLEERPGDSSSSSDEEINTIGNVPLDWYKDLSHIGYTRDGIKLLRRKRVGPLCPVYVKKGFYYLYDEKNDEEIALSRNDLKRLVSIVRLQNPSGATESGFVGEEIVFWTGTPRIEPIRNRNEPKRSFLPSRHEAAQVVKLVRSILRRKRIEELKEHKSEKEDLSIWEETSFEQVGRSHHYLPPPKTPLPGHEESYRPPPEFLLNEEEKSKRKENNELVPETYNFLRHVPLYTSLIREHFERCLELYCAPRMRVRRRKIDPEALLPKLPSPDTLRPFPDSQVASFGPHAGAIRAISLNSNGQWLACACQDGSVSIWEVATGICRIRIDFQEKLKEMLASFESLSQATESEMESMGQYEDLSILHVAWSPKENDFKLAVCIKHFVAVVNVAHILYPDEAQDSQSFGYSVVGEPSSNWKDWKDERGNLGRIAIIEHSRKVQHVHWHQRGDYFVVLTKNAFGSSLVVHQLSRKRTQSPFSKSAKGVITADFHPSKSLFFITTKHHVRIYDLAQAQLVNKLVTGISEISAMSVHPSGNHVLIGSVEGQLVWFDLDLSSRPYKRIRDHTYTVSSIAFHPTLPLFADASDDQTVAVFHATVYEDLLQNPLIVPLKVLKLPHNSKGTGVWSICWHPQLPWLFVSGIDEYVRLYADTS | soluble
METAPDEAPTEFLEPGEEIVENVIEEEVVHEEDVEHHEEDGEMIEVQHEEVLEEIVEEDGMMFDTDGRVIEYSDVMVYEEGTEVIEEYVEVEDLGDGRYAYVMTDDIGHRRLLKPHEVEAVKKMPGMMEEEVVMDDEKAPNTSYAAAQKRGRFPPQARSSLSPQKPRAAGAYMGPEAYYQQPKRMTHMAKVDVEKYSPVTPVNRRPLMDNAIFKSKLPRKSAPWQEETAANGGPQSTSLIRSPSPMLKEPLFDDNEIRFKCAECGDGFPVMDRLCDHMIKQHDCQTNVREVQFFADRDFENFLLKVEKATLGRDPEDAIRKKSRAGSSQLFVCNYMNKGRQKMAELVEVGIVGLSERPLEVCTAFVQKTHGYECIRVKYCDQHIHYDGNIGFRVPIAVKRRLFEMSFKRLPIPCMQIMLGLEAEQLLPHPTRFEEKLKNLSHVEIIELLQIINASLRKHQEVEPRGKKVPIKFETIKSSEGSQTLMVKRVTPPKKEHMDYDEPDPNIPSTSAQALGYNPDDDEGDDVPMMSREEEVLDDETGEESVMTEDCDGMMEDNMCSFLVFFCWRKNGEK | not soluble
